# According to US8247168B2, “Regulation of gene expression by protein methylation” (University of Southern California, priority 1998, dated 2012):
# B1: CARM1: novel murine protein arginine methyltransferase and transcriptional coactivator, 608 amino acids (protein, listed as Mus musculus)
# chain: MAAAAATAVGPGAGSAGVAGPGGAGPCATVSVFPGARLLTIGDANGEIQRHAEQQALRLEVRAGPDAAGIALYSHEDVCVFKCSVSRETECSRVGRQSFIITLGCNSVLIQFATPHDFCSFYNILKTCRGHTLERSVFSERTEESSAVQYFQFYGYLSQQQNMMQDYVRTGTYQRAILQNHTDFKDKIVLDVGCGSGILSFFAAQAGARKIYAVEASTMAQHAEVLVKSNNLTDRIVVIPGKVEEVSLPEQVDIIISEPMGYMLFNERMLESYLHAKKYLKPSGNMFPTIGDVHLAPFTDEQLYMEQFTKANFRYQPSFHGVDLSALRGAAVDEYFRQPVVDTFDIRILMAKSVKYTVNFLEAKEGDLHRIEIPFKFHMLHSGLVHGLAFWFDVAFIGSIMTVWLSTAPTEPLTHWYQVRCLFQSPLFAKAGDTLSGTCLLIANKRQSYDISIVAQVDQTGSKSSNLLDLKNPFFRYTGTTPSPPPGSHYTSPSENMWNTGSTYNLSSGVAVAGMPTAYDLSSVIAGGSSVGHNNLIPLANTGIVNHTHSRMGSIMSTGIVQGSSGAQGGGGSSSAHYAVNNQFTMGGPAISMASPMSIPTNTMHYGS
# Columns and labels:
# [1] = test system: androgen receptor, estrogen receptor, and thyroid hormone receptor; experiment: Reporter gene activation by hormone-activated nuclear receptors in transiently transfected CV-1 cells; format: cell-based; conditions: co-expression of CARM1 with the NR and GRIP1, over NR+GRIP1 (lane e)
# Description: (A) Transient transfection assays with CV-1 cells were performed as in FIG. 5 with 0.5 μg of GK1 reporter gene and 0.5 μg of each of the indicated vectors. (B) CV-1 cells were transiently transfected as in FIG. 5 with the following vectors, as indicated: 0.5 μg of nuclear receptor expression vector pSVAR0 (Brinkmann, A. O. et al. (1989) J. Steroid Biochem. Molec. Biol. 34:307) expressing AR, pHE0 (Green, S. et al. (1988) Nucleic Acids Res. 16:369) expressing ER, or pCMX.hTRβ1 (Feng, W. et al. (1998) Science 280:1747) expressing TR; 0.5 μg of a luciferase reporter gene with an appropriate promoter, MMTV promoter for AR, or MMTV promoter with the native glucocorticoid response elements replaced by a single estrogen response element for ER or palindromic thyroid hormone response element for TR (Umesono, K. and R. M. Evans (1989) Cell 57:1139); 0.5 μg of pSG5.HA-GRIP1; and 0.5 μg of pSG5.HA-CARM1 or pSG5.HA-CARM1 (VLD mutant). Transfection efficiency was monitored by using βgalactosidase activity expressed from 0.1 μg of co-transfected pCMV-βgal vector (Hong, H. et al. (1996) Proc. Natl. Acad. Sci. USA 93:4948-4952) as an internal control. After transfection, cells were grown in charcoal-treated serum; where indicated 20 nM hormone (H), i.e. dihydrotestosterone for AR, estradiol for ER, or triiodothyronine for TR, was included during the last 40 h of culture. […]
# histone H3 = target: T1, histone H3 (Bos taurus, UniProt P68432); experiment: Identification of methylated amino acids in histone H3 by thin layer chromatography of the hydrolyzate; format: biochemical, calf; conditions: histone H3 methylated by CARM1, thin layer chromatography
# T1 construct: A 3.2-kb partial CARM1 cDNA clone with an open reading frame of 606 amino acids (CARM1(3-608)); purchased Boehringer Mannheim; host or cells: histone H3 from calf thymus; GST-CARM1 made in E. coli BL21
# Description: Histone H3 was incubated for 60 min at 30° C. in a 100 μl methylation reaction as described in FIG. 8, containing 0.024 mg/ml GST-CARM1 and 0.63 mg/ml H3. The reaction was stopped with 25 μl of 3% (v/v) trifluoroacetic acid (TFA), 15% (v/v) acetonitrile, and 100 μl was injected into a 3 cm×4.6 mm RP-300 reversed-phase guard column (Perkin Elmer-Brownlee) equilibrated with 80% solvent A (0.3% TFA in water) and 20% solvent B (0.3% TFA in acetonitrile). Methylated H3 was separated from unreacted S-adenosylmethionine using a gradient of 20-80% solvent B over 5 min at a flow rate of 1.0 ml/min. H3 eluted as a broad complex peak detected by monitoring absorbance at 214 nm. The H3 pool was reduced to dryness in a vacuum centrifuge and then subjected to acid hydrolysis in 6 N HCl at 112° C. for 20 h. […] Radioactivity in the fractions was determined by liquid scintillation counting, and peak identity was determined by comparison to derivatized standards including the three major forms of methylarginine and methyllysine. […] Radioactive spots corresponding to the positions of the three forms of methylarginine (which all separated from each other) were removed by scraping the chromatogram, and quantified by liquid scintillation counting. […]
molecule,measurement,setting,value
B1,further enhancement of reporter gene expression,[1],2 to 4 fold
same,"radiolabel migrating with N^G,N^G-dimethylarginine",histone H3,approximately 70%
same,radiolabel migrating with N^G-monomethylarginine,histone H3,30%
